For series [1], the target named is T1, hTra2-β RRM (Homo sapiens, UniProt P62995 110-201).
T1 sequence: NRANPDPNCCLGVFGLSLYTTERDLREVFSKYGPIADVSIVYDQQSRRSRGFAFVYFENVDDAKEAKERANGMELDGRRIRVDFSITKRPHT
In words: ITC. A general note: In ITC the heat of successive injections is recorded.

Series [2] concerns the target T1, hTra2-β RRM. In words: NMR titration.
In series [3] the target is T1, hTra2-β RRM. In words: ITC. This is another data set of the same source.

For the molecule GACUUCAACAAGUC (structured_RNA) [14-mer CAA stem-loop RNA], binding with hTra2-β RRM [1] was put at a Kd of 3.48 µM.
As for UCAAU (ssRNA), the results for the Kd in the series with hTra2-β RRM [2] and in the series with hTra2-β RRM [3] were about 40 µM and 47.8 µM, respectively.
The molecule GAAGAA (ssRNA) [(GAA)2, GAAGAA] came in with a Kd with hTra2-β RRM [1] of 1.5 µM.

The term Kd denotes the free concentration of one partner at which half of the binding sites on the other are occupied at equilibrium, for simple one-to-one binding. Read a high Kd as weaker binding.

The values are drawn from PMC3045587.
